Laboratory results: the supplement of paper PMC10567573

B1: CCND1 (parent)
chain: PEAEENKQIIRKHAQTFVALCATD

Variants of: B1
Experiment: protein stability index of a GFP-peptide fusion (GPS, HEK-293T) (PSI 1-6); higher = more stable
Conditions: c terminus: a fixed tail appended
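Also: lentivirally expressed fusions sorted by FACS into six bins by GFP to DsRed ratio, PSI derived from sequencing read proportions per bin multiplied by bin number.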

Variant | protein stability index
PEAEENKQFIRKHAQTFVALCATD | 2.86
PEAEENKQEIRKHAQTFVALCATD | 3.89
PEAEENKQPIRKHAQTFVALCATD | 3
PEAEENKQTIRKHAQTFVALCATD | 2.18
PEAEENKQHIRKHAQTFVALCATD | 3.58
PEAEENKQVIRKHAQTFVALCATD | 3.04
PEAEENKQSIRKHAQTFVALCATD | 2.46
PEAEENKQGIRKHAQTFVALCATD | 3.27
PEAEENKQLIRKHAQTFVALCATD | 3.36
PEAEENKQRIRKHAQTFVALCATD | 2.17
PEAEENKQNIRKHAQTFVALCATD | 3.56
PEAEENKQCIRKHAQTFVALCATD | 2.48
PEAEENKQDIRKHAQTFVALCATD | 3.9
PEAEENKQKIRKHAQTFVALCATD | 2.45
PEAEENKQQIRKHAQTFVALCATD | 2.81
PEAEENKQYIRKHAQTFVALCATD | 2.71
PEAEENKQMIRKHAQTFVALCATD | 3.53
PEAEENKQWIRKHAQTFVALCATD | 2.73
PEAEENKQIIRKHAQTFWALCATD | 3.76
PEAEENKQIIRKHAQTFDALCATD | 5.34
PEAEENKQIIRKHAQTFQALCATD | 4.29
PEAEENKQIIRKHAQTFTALCATD | 3.96
PEAEENKQIIRKHAQTFNALCATD | 4.61
PEAEENKQIIRKHAQTFRALCATD | 3.87

Variant | protein stability index
PEAEENKQIIRKHAQTFCALCATD | 3.72
PEAEENKQIIRKHAQTFIALCATD | 4.42
PEAEENKQIIRKHAQTFAALCATD | 3.77
PEAEENKQIIRKHAQTFMALCATD | 4.35
PEAEENKQIIRKHAQTFLALCATD | 4.49
PEAEENKQIIRKHAQTFKALCATD | 5.09
PEAEENKQIIRKHAQTFPALCATD | 5.04
PEAEENKQIIRKHAQTFGALCATD | 4.55
PEAEENKQIIRKHAQTFHALCATD | 4.7
PEAEENKQIIRKHAQTFFALCATD | 4.28
PEAEENKQIIRKHAQTFEALCATD | 5.09
PEAEENKQIIRKHAQTFSALCATD | 4.49
PEAEENKQIIRKSAQTFVALCATD | 2.54
PEAEENKQIIRKKAQTFVALCATD | 2.02
PEAEENKQIIRKFAQTFVALCATD | 2.55
PEAEENKQIIRKEAQTFVALCATD | 3.7
PEAEENKQIIRKPAQTFVALCATD | 3.17
PEAEENKQIIRKWAQTFVALCATD | 2.25
PEAEENKQIIRKVAQTFVALCATD | 3.02
PEAEENKQIIRKAAQTFVALCATD | 3.11
PEAEENKQIIRKGAQTFVALCATD | 3.84
PEAEENKQIIRKCAQTFVALCATD | 2.65
PEAEENKQIIRKMAQTFVALCATD | 2.89
PEAEENKQIIRKQAQTFVALCATD | 3.4

Variant | protein stability index
PEAEENKQIIRKNAQTFVALCATD | 2.53
PEAEENKQIIRKYAQTFVALCATD | 2.59
PEAEENKQIIRKLAQTFVALCATD | 2.81
PEAEENKQIIRKTAQTFVALCATD | 3.07
PEAEENKQIIRKIAQTFVALCATD | 1.87
PEAEENKQIIRKDAQTFVALCATD | 4.02
PEAEENKQIIRKRAQTFVALCATD | 2.9
PEAEENKQIIRKHAQTPVALCATD | 5.15
PEAEENKQIIRKHAQTSVALCATD | 4.67
PEAEENKQIIRKHAQTCVALCATD | 4.84
PEAEENKQIIRKHAQTLVALCATD | 4.47
PEAEENKQIIRKHAQTEVALCATD | 5.24
PEAEENKQIIRKHAQTRVALCATD | 4.54
PEAEENKQIIRKHAQTHVALCATD | 4.86
PEAEENKQIIRKHAQTYVALCATD | 3.27
PEAEENKQIIRKHAQTDVALCATD | 5.61
PEAEENKQIIRKHAQTNVALCATD | 5.41
PEAEENKQIIRKHAQTTVALCATD | 5.23
PEAEENKQIIRKHAQTGVALCATD | 5.43
PEAEENKQIIRKHAQTMVALCATD | 5.03
PEAEENKQIIRKHAQTIVALCATD | 4.84
PEAEENKQIIRKHAQTAVALCATD | 4.99
PEAEENKQIIRKHAQTVVALCATD | 4.33
PEAEENKQIIRKHAQTQVALCATD | 4.99

Variant | protein stability index
PEAEENKQIIRKHAQTKVALCATD | 5.34
PEAEENKQIIRKHAQTWVALCATD | 2.11
PEAEENKQIIRSHAQTFVALCATD | 2.29
PEAEENKQIIRHHAQTFVALCATD | 3.47
PEAEENKQIIRNHAQTFVALCATD | 3.25
PEAEENKQIIRGHAQTFVALCATD | 3.65
PEAEENKQIIRDHAQTFVALCATD | 3.66
PEAEENKQIIRVHAQTFVALCATD | 3.13
PEAEENKQIIRRHAQTFVALCATD | 2.67
PEAEENKQIIRAHAQTFVALCATD | 3.83
PEAEENKQIIRFHAQTFVALCATD | 2.51
PEAEENKQIIREHAQTFVALCATD | 4.58
PEAEENKQIIRYHAQTFVALCATD | 3.49
PEAEENKQIIRIHAQTFVALCATD | 2.39
PEAEENKQIIRMHAQTFVALCATD | 2.73
PEAEENKQIIRPHAQTFVALCATD | 4.03
PEAEENKQIIRLHAQTFVALCATD | 2.77
PEAEENKQIIRQHAQTFVALCATD | 3.9
PEAEENKQIIRWHAQTFVALCATD | 2.34
PEAEENKQIIRCHAQTFVALCATD | 2.76
PEAEENKQIIRTHAQTFVALCATD | 3.06
PEAEENKQIILKHAQTFVALCATD | 3.25
